Substitutions are numbered along the chain they refer to. Names and notes keep the numbering of the source.
B1: chimeric 4E11 antibody cH-cL (antibody, human IgG4 S228P, kappa, V domains shown)
VH: DVQLQESGPGLVKPSQSLSLTCTVTGYSITSDYAWNWIRQFPGNKLEWMGYIGYNGRTSYNPSLKSRISITRDTSKNQFFLQLNYVTTEDTATFYCARLGRGFAYWGQGTLVTVSA
VL: DILMTQSPSSMSVSLGDTVSITCHASQGINSNIGWLLQKPGKSFKGLIYHGTNLEDGVPSRFSGSGSGTDYSLTISSLESEDFADYYCVQYAQFPYTFGGGTKLEIKR
notes: Murine 4E11 V regions on human IgG4(S228P) heavy chain, C-terminal Lys deleted, and human kappa light chain; made in CHO cells; also called chimeric variant
B2: humanized 4E11 antibody hH3-hL2 (antibody, human IgG4 S228P, kappa, V domains shown)
VH: QVQLQESGPGLVKPSQTLSLTCTVSGYSITSDYAWNWIRQPPGKGLEWMGYIGYNGRTSYNPSLKSRITISRDTSKNQFSLKLSSVTAADTAVYYCARLGRGFAYWGQGTLVTVSS
VL: DIQMTQSPSSLSASVGDRVTITCHASQGINSNIGWLQQKPGKAPKGLIYHGTNLEDGVPSRFSGSGSGTDYTLTISSLQPEDFATYYCVQYAQFPYTFGQGTKLEIKR
notes: Human IgG4(S228P), C-terminal Lys deleted, human kappa; made in CHO cells; 16) for this name; 17
B3: humanized 4E11 antibody hH2-hL3 (antibody, human IgG4 S228P, kappa, V domains shown)
VH: B2 VH with M49I, I68V
VL: B2 VL with P44F
notes: Human IgG4(S228P), C-terminal Lys deleted, human kappa; made in CHO cells; 17) for this name; 18
B4: humanized 4E11 antibody hH3-hL3 (antibody, human IgG4 S228P, kappa, V domains shown)
VH: B2 VH
VL: B2 VL with P44F
notes: as for B3
B5: humanized 4E11 antibody hH3-hL1 (antibody, human IgG4 S228P, kappa, V domains shown)
VH: B2 VH
VL: B2 VL with L36Y, G46L
notes: Human IgG4(S228P), C-terminal Lys deleted, human kappa; made in CHO cells; 18) for this name; 16
B6: humanized 4E11 antibody hH2-hL1 (antibody, human IgG4 S228P, kappa, V domains shown)
VH: B2 VH with M49I, I68V
VL: B2 VL with L36Y, G46L
notes: Human IgG4(S228P), C-terminal Lys deleted, human kappa; made in CHO cells; 16) for this name; 16
B7: humanized 4E11 antibody hH2-hL2 (antibody, human IgG4 S228P, kappa, V domains shown)
VH: B2 VH with M49I, I68V
VL: B2 VL
B8: humanized 4E11 antibody hH1-hL2 (antibody, human IgG4 S228P, kappa, V domains shown)
VH: B2 VH with M49I, I68V, R72V
VL: B2 VL
B9: humanized 4E11 antibody hH1-hL3 (antibody, human IgG4 S228P, kappa, V domains shown)
VH: B2 VH with M49I, I68V, R72V
VL: B2 VL with P44F
B10: humanized 4E11 antibody hH1-hL1 (antibody, human IgG4 S228P, kappa, V domains shown)
VH: B2 VH with M49I, I68V, R72V
VL: B2 VL with L36Y, G46L

target: T1, wild-type epidermal growth factor receptor (EGFR wt) (human, UniProt P00533 25-1210); assay: flow cytometry on U87MG-EGFR wt cells
T1 construct: whole, on cells; also called wt EGFR; WT EGFR
Protocol: Cells overexpressing full length wt EGFR or EGFRvIII were obtained from the laboratory of W. Cavanee (Ludwig Institute for Cancer Research, University of California at San Diego). Cells were grown in DMEM high glucose medium containing 10% FBS and 400 μg/ml G418.
Prior to analysis, cells were plated such that they were not more than 80% confluent on the day of analysis. Unless otherwise stated, all media are kept are 4° C. and all incubations are performed on wet ice. Cells were washed in PBS, harvested by the addition of cell dissociation buffer (Sigma), centrifuged and resuspended in complete medium at a cell density of 2×10⁶ cells/mL. […] Cells were washed twice by centrifugation and further incubated with a FITC labeled F(ab′)₂ goat anti-mouse antibody (Fc specific, #115-096-071, Jackson Immunoresearch, Cedarlane) for an hour. Cells were washed and re-suspended in medium containing Propidium iodide to exclude dead cells from analysis. Samples were filtered through a 60 μm nylon mesh filter plate (Millipore) to remove cell aggregates. Flow cytometry analyses were performed on 2,000 viable single-cells events gated on forward scattering, side scattering parameters and propidium iodide dye exclusion using a BD-LSRFortessa flow cytometer (Becton-Dickinson Biosciences) and a standard filter set using BD FACSDiva™ acquisition software, according to manufacturer's instructions.

In order of rising “Bmax @ 300 nM (MFI)” value:
1. B2  160 MFI
2. B5  164 MFI
3. B6  319 MFI
4. B1  525 MFI
5. B4  1370 MFI
6. B3  1420 MFI

target: epidermal growth factor receptor variant III (EGFRvIII) (human) (UniProt P00533); assay: flow cytometry on U87MG-EGFRvIII cells, apparent KD (KD-app), mean of several experiments

In order of falling Kd:
1. B8  23 nM
2. B9  15.7 nM
3. B7  10.5 nM
4. B10  9.7 nM
5. B2  7.9 nM
6. B3  7.2 nM
7. B4  7.1 nM
8. B6  5.8 nM
9. B5  4.9 nM

— patent publication US20240400697A1 (NATIONAL RESEARCH COUNCIL OF CANADA, published 2024)
